# Experimental data: PMC11947617, “Fine‐tuned interactions between globular and disordered regions of single‐stranded DNA binding (SSB) protein are required for dynamic condensation under physiological conditions” (Protein Science : A Publication of the Protein Society, 2025)
# No end group written: not given here. fluorescein = fluorescein label
# B1: fluorescein-labeled SSB C-terminal peptide (peptide)
# peptide: fluorescein-MDFDDDIPF
# notes: also called flu-CTP; labeled C-terminal peptide
# Biological target: T1, Escherichia coli single-stranded DNA binding (SSB) protein, wild type (E. coli, UniProt P0AGE0 1-178)
# T1 construct: E. coli SSB, wild type; OB domain aa 1-112, IDL aa 113-177 with the CTP aa 169-177; homotetramer of 19-kDa subunits; Construct as described in Harami et al. (2020); also called SSB-WT; WT; source: E. coli ER2566, purified (Polymin P, ammonium sulfate, heparin, MonoQ)
# Assay: fluorescence polarisation; 15 nM flu-CTP titrated with SSB or SSBdC; standard LLPS buffer (20 mM Tris-OAc pH 7.5, 50 mM KGlu, 5 mM Mg(OAc)2), no PEG; 25°C; quadratic binding equation
# Conditions: both partners purified
# T1 sequence (P0AGE0 whole entry, the tested form may be a part): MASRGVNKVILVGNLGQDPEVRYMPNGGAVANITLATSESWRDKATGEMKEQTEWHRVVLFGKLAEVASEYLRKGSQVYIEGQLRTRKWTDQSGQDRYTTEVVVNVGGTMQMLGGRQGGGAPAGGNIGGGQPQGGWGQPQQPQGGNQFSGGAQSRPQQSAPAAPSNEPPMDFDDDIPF
binder,measurement,value
B1,Kd,> 100 µM
